According to publication PMC8455029:

How the values were obtained:
[1] = molecular target: AtFN3K C32A/C236A/C196A (Arabidopsis thaliana); assay: SEC
[2] = molecular target: AtFN3K C32A/C236A/C196A (Arabidopsis thaliana); assay: AUC

With AtFN3K C32A/C236A/C196A (enzyme) the stoichiometry N [1] was 2 and the stoichiometry N [2] was 2.
